Test results: patent US20020147326A1, “Hexameric fusion proteins and uses therefor” (SmithKline Beecham Corporation, priority 1996, published 2002)

Experiments:
[1] = test system: PCD28.1.S2.1 cells (human CD28, lacZ fused to the IL-2 promoter); assay: FDG assay for IL-2 promoter activity (lacZ reporter); assay type: cell-based, murine; conditions: added directly to PC28.1.s2.1 cells in solution (FIG. 20A)
Protocol: A second assay for agonist activity measured induction of IL-2 promoter activity, rather than production of IL-2 protein. The PCD28.1.S2.1 cells described above also contain lacZ fused to the IL-2 promoter. Thus, the PCD28.1.S2.1 cell line provides a convenient system for measuring IL-2 promoter activity upon CD28-mediated T cell simulation. T cells were activated as described above for the CTLL-2 assay, spun down, resuspended in 50 μl of media+50 μl of PBS, lysed with 10 μl of 20% Triton X-100, and supplemented with 25 μl of 10 mM FDG (Molecular Probes), a fluorogenic substrate for b-galactosidase. Hydrolysis of FDG first yields fluorescein monogalactoside (FMG) and then the highly fluorescent product fluorescein. Cell lysates were incubated with FDG for 60 min., and the levels of fluorescence were measured by Fluoroscan (MTX Lab Systems, Inc).
IL-2 promoter activity and IL-2 levels were measured similarly to that described in parts A and B above, except that proliferation of the reader CTLL-2 cells was measured by ^3H-thymidine incorporation.

CD28-Ig [2] = biological target: T1, CD28-Ig (Homo sapiens, UniProt P10747); assay: ELISA binding of biotinylated fusion proteins to immobilized CD28-Ig; parameters: native leader and extracellular domain peptide of CD28 and CD80 were grafted onto a human IgG1 heavy chain Fc region; human IgG1 Fc (hinge/CH2/CH3); made in house; host or cells: CHO cells; conditions: for binding to immobilized CD28-Ig: biotinylated protein, ELISA
Protocol: For this assay format, the CD80-Igαtp protein was biotinylated for simplicity of assay and for ease of detection since the CD28 protein absorbed to the plate wells was also a human Ig fusion construct. Biotinylation was carried out essentially as described in Avidin-Biotin Chemistry: A handbook, M. D. Savage et al., Pierce Chemical Company (1992). […] All steps of the assay after coating were carried out at room temperature.
The wells of 96 well microtiter plates (Immunlon 4, Dynatech Laboratories) were coated with CD28-Ig (1, 2, or4 μg/ml) in 100 μl/well of 0.1 M sodium bicarbonate, pH 9.4 and incubated overnite @4° C. The wells were washed with PBS (phosphate buffered saline) and blocked with 0.5% gelatin in PBS for 1 hour. Following an additional PBS wash, biotinylated CD80-Igαtp was serially diluted in PBS containing 1 mg/ml BSA, 0.05% Tween directly in the wells in a final volume of 0.1 ml and incubated for 1 hour. The wells were washed with PBS and bound CD80-Igαtp protein was measured by the addition of 0.1 ml of strepavidin-HRP (streptavidin conjugated with horseradish peroxidase (Southern Biotech)) at a 1:2000 dilution for 1 hour, followed by washing and color development with 100 μl ABTS substrate (Kierkegaard and Perry Laboratories Inc., Maryland) and measurement of absorbance at 405 nm. In some cases the color reactions were arrested by addition of 100 μl of 1% SDS prior to measurement of absorbance. In this figure, “CD28-Fc”, “CTLA4-Fc”, and “B7-FcA” denote CD28-Ig, CTLA4-Ig, and CD80-Igαtp, respectively.

CD28-Ig [3] = biological target: T1, CD28-Ig; assay: Isothermal titration calorimetry, binding to CD28-Ig in solution; parameters: native leader and extracellular domain peptide of CD28 and CD80 were grafted onto a human IgG1 heavy chain Fc region; human IgG1 Fc (hinge/CH2/CH3); made in house; host or cells: CHO cells
Excerpt: The solution binding properties of the hexameric and standard Ig fusion proteins of CD80 and CD86 were compared using isothermal titration calorimetry, essentially as described previously for other proteins [K. Johanson et. al., J. Biol. Chem, 270: 9459-9471 (1995), and references therein].
This lower affinity for CD28 than for CTLA4 is in agreement with other reports [P. S. Linsley et. al., Immunity 1: 793-801 (1994)].

CD28-Ig [4] = biological target: T1, CD28-Ig; assay: Surface plasmon resonance (BIAcore) on immobilized CD28-Ig; assay type: binding; parameters: native leader and extracellular domain peptide of CD28 and CD80 were grafted onto a human IgG1 heavy chain Fc region; human IgG1 Fc (hinge/CH2/CH3); made in house; host or cells: CHO cells; conditions: for dissociation from CD28-Ig coated surface: BIAcore, 10 ul/min
Protocol: Covalent attachment was achieved by firstly activating the surface with a 1:1 mixture of 0.1 M solution of N-hydroxysuccinamide and 0.1 M 1-ethyl-3-(3-dimethylaminopropyl)carbodiimide. A solution of CD28-Ig 50 ug/ml in 0.01 M sodium acetate pH 4.7 was then passed over the surface. Unreacted N-hydroxysuccinamide esters were then deactivated with 1 M ethanolamine pH 8.5. The surface was equilibrated with running buffer composed of 20 mM HEPES 150 mM NaCl, pH 7.2, 3 mM EDTA and 0.005% Tween 20.
For comparison of CD80-Igαtp and CD86-Igαtp binding with immobilized CD28-Ig, solutions of CD80-Igαtp and CD86-Igαtp (5 ug/ml) were prepared in running buffer described above. Sample solutions were injected (60 ul) at 10 ul/min. Between samples, the surface was regenerated with a 30 ul injection of Gentle elution buffer (Pierce Chemicals, Rockville, Ill.).

[5] = biological target: T2, human CD28 on PCD28.1.s2.1 cells (Homo sapiens, UniProt P10747); assay: Flow cytometry binding to cells expressing cell-surface CD28; assay type: cell-based; conditions: on ice
T2 construct: expressed in transfected cells; host or cells: PCD28.1.s2.1 (PE30.2 murine T-cell hybridoma transfected with pHbactCd28neo)
Protocol: Non-adherent CD28 expressing cells (PCD28.1.s2.1) were used for this assay format. PCD28.1.S2.1 cells were created by transfection of PE30.2 cells [D. Emilie et al., Eur. J. Immunol., 19:1619-1624 (1989)] with a vector for expression of human CD28 [D. Couez et al., Molecular Immunology, 31:47-57 (1994)]. All incubations were carried out on ice. Unlabelled CD80- and CD86-Igαtp or CD80 and CD86-Ig were incubated with the cells in binding buffer consisting of PBS w/o Ca+2/Mg+2, 0.2% bovine serum albumin and 0.1 % sodium azide. After washing twice in binding buffer, bound fusion proteins were detected with a 1:2000 dilution of a goat anti-human polyclonal antibody labeled with FITC (Flourescein isothiocyanate, Southern Biotech). Following two additional washes in binding buffer, the cells were resuspended in binding buffer and analyzed on a FACSort analyzer (Becton-Dickinson) using a 488 nm laser.

| binding to immobilized CD28-Ig (CD28-Ig [2]) | interaction with CD28-Ig in solution by calorimetry (CD28-Ig [3]) | dissociation from CD28-Ig coated surface (CD28-Ig [4]) | binding to CD28 positive cells [5] | saturation of OD405 (CD28-Ig [2]; biotinylated CD80-Igαtp at 50 μg/ml) | off-rate compared with CD80-Igαtp (CD28-Ig [4]; 5 ug/ml) | Substance | IL-2 promoter activity [1] |
| --- | --- | --- | --- | --- | --- | --- | --- |
| concentration dependent binding | did not show detectable binding | about three orders of magnitude slower | specific binding | about 50% |  | CD80-Igαtp: CD80 leader and extracellular domain linked to human IgG1 hinge/CH2/CH3 and terminating in human IgA1 tailpiece (αtp) | dose dependent stimulation |
| good binding | did not show detectable binding | dissociates slowly | specific binding |  | higher than that for the CD80 construct | CD86-Igαtp: CD86 leader and extracellular domain linked to human IgG1 Fc and terminating in human IgA1 tailpiece (αtp) | dose dependent stimulation |

| Substance | binding to immobilized CD28-Ig (CD28-Ig [2]) | interaction with CD28-Ig in solution by calorimetry (CD28-Ig [3]) | dissociation from CD28-Ig coated surface (CD28-Ig [4]) | binding to CD28 positive cells [5] | saturation of OD405 (CD28-Ig [2]; biotinylated CD80-Igαtp at 50 μg/ml) | off-rate compared with CD80-Igαtp (CD28-Ig [4]; 5 ug/ml) | IL-2 promoter activity [1] |
| --- | --- | --- | --- | --- | --- | --- | --- |
| CD80-Ig: CD80 leader and extracellular domain grafted onto human IgG1 heavy chain Fc region; monomeric Ig fusion (Ig homodimer) [reference compound] | little binding and only at much higher concentrations | not detected | dissociates very rapidly | no binding |  |  | no stimulation |
